Results on 1 molecule are retold here after article doi:10.1101/2025.10.18.683246 (bioRxiv, 2025).

Data set [1] concerns the molecule itself. The experiment in a line: SDS-PAGE with or without DTT and Western blot. For orientation: In western blotting, separated proteins are transferred to a membrane and probed.
The target in data set [2] is T1, N-terminal cleavage product of CLCA1 (NTP) (human, UniProt A8K7I4 22-694, N-glycans at Asn503 and Asn585).
T1 sequence (looked up): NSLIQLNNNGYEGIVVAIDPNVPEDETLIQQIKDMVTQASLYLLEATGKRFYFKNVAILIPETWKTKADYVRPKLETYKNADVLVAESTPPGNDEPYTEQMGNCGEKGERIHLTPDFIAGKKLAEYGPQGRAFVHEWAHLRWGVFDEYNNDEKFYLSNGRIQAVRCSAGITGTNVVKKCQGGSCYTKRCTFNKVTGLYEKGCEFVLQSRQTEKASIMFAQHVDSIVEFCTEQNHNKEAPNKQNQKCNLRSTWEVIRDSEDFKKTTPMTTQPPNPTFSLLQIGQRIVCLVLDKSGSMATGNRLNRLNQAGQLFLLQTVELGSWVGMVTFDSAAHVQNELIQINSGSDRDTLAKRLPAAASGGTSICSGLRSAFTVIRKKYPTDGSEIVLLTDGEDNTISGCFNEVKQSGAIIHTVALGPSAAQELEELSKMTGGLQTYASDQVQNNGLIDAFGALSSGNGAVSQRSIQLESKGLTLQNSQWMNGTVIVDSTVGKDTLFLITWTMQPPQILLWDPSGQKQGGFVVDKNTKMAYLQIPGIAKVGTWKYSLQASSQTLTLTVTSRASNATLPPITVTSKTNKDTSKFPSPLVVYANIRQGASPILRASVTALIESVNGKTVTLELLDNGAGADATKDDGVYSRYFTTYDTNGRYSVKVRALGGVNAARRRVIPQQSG
The experiment in a line: cryo-EM structure.

B1: C-terminal cleavage product of CLCA1 (CTP) (domain or fragment, human, UniProt A8K7I4 695-914, looked up)
chain: ALYIPGWIENDEIQWNPPRPEINKDDVQHKQVCFSRTSSGGSFVASDVPNAPIPDLFPPGQITDLKAEIHGGSLINLTWTAPGDDYDHGTAHKYIIRISTSILDLRDKFNESLQVNTTALIPKEANSEEVFLFKPENITFENGTDLFIAIQAVDKVDLKSEISNIARVSLFIPPQTPPETPSPDETSAPCPNIHINSTIPGIHILKIMWKWIGELQLSIA
modifications: N-glycans at Asn770, Asn804, Asn810, Asn831 and Asn836
Consider B1, for which the binding result in data set [1] and in data set [2] was “binds” throughout.
